Results published in patent publication US12383631B2, “Immune antigen specific IL-18 immunocytokines and uses thereof” (Bright Peak Therapeutics AG, priority 2022, dated 2025).

What was measured:
PD-1/PD-L1 interaction = PD-1/PD-L1 interaction (Homo sapiens, UniProt Q15116+Q9NZQ7); experiment: PD-1/PD-L1 Blockade Bioassay, Jurkat NFAT-RE luciferase / PD-L1 aAPC CHO-K1 (Example 7); type: cell-based; details: table titled activity in the PD-1/PD-L1 Blockade Cellular Assay; NFAT-RE luminescence, 6 h; read-out: KD FcRn
Sequence of PD-1/PD-L1 interaction (Q15116 25-288): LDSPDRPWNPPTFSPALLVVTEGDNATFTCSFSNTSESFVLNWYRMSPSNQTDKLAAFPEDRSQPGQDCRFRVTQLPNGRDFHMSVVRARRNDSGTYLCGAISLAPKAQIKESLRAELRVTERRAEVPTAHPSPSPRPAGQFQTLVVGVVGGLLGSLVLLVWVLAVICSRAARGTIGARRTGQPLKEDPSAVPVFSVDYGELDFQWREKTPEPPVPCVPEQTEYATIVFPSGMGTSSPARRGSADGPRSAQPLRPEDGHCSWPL
Sequence of PD-1/PD-L1 interaction (Q9NZQ7 19-290): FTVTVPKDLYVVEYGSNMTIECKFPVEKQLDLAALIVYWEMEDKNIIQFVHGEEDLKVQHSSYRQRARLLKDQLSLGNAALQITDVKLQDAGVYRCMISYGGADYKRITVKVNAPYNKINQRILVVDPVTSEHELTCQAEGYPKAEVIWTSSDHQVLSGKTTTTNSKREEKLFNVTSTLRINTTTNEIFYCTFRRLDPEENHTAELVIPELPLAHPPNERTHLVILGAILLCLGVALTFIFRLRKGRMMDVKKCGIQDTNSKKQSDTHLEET
Method: For immunocytokine compositions which comprise PD-1 or PD-L1 antibodies or antigen binding fragments, the experiment outlined below is performed to assess the ability of the immunocytokines to interfere with the PD-1/PD-L1 pathway. The assay is the PD-1/PD-L1 Blockade Bioassay from Promega (Cat #J1250, Madison, WI, USA). PD-1/PD-L1 Blockade Bioassay is a bioluminescent cell-based assay based on the co-culture of effector cells with target cells mimicking an immunological synapse. Jurkat T cells expressing human PD-1 and a luciferase reporter driven by a NFAT response element (NFAT-RE) are activated by CHO-K1 cells expressing human PD-L1 and an engineered cell surface protein designed to activate Jurkat cells cognate TCRs. Concurrent interaction PD-1/PD-L1 inhibits TCR signaling and represses NFAT-RE-mediated luminescence. […]
Briefly, PD-L1 aAPC/CHO-K1 Target cells were plated in white tissue culture 96-wells plates and cultured overnight at 37° C./5% CO2. Test molecules were measured in four-fold serial dilutions starting at 1 μM down to 0.002 nM and pre-incubated on target cells for 10 min before the addition of freshly thawed PD-1 Jurkat effector cells. After 6 h at 37° C./5% CO2, activity NFAT-RE luminescent reporter was evaluated by the addition of Bio-Glo reagent and measured on an ENSPTRE® plate reader (1 sec/well) from Perkin Elmer (Schwerzenbach, Switzerland).

[1] = target: human Fc gamma receptor I (FcγRI/CD64) (Homo sapiens, UniProt P12314); experiment: Human FcγR binding ELISA, FcγRI (Example 8); details: antibody coated on plate, soluble receptor titrated, read-out: FcγRI/(CD64) binding affinity
Sequence of human Fc gamma receptor I (FcγRI/CD64) (P12314 16-374): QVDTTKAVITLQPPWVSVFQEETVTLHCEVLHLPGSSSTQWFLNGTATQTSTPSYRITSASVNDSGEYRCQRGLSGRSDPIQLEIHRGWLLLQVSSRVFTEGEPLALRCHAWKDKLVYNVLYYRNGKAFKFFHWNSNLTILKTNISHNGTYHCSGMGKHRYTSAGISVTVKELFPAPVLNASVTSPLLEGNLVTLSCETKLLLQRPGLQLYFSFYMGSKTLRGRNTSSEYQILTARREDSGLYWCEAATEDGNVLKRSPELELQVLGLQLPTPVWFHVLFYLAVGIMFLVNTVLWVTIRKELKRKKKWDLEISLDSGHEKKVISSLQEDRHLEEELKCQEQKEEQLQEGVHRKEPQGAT
Method: (§1) The interaction of the unmodified and of conjugated antibodies with human Fc gamma receptors I (FcγRI/CD64), with human Fc gamma receptors IIa (FcγRIIa/CD32a), with inhibitory human Fc gamma receptors IIb (FcγRIIb/CD32b), and with human Fc gamma receptors III FcγRIIIa/CD16 were measured by ELISA.
(§2) Briefly, Corning high-binding half-area plates (Fisher Scientific, Reinach, Switzerland) were coated overnight at 4° C. with 25 μl of unmodified and of conjugated anti-PD1 antibodies at 2.5 μg/ml in PBS. Plates were then washed four times with 100 μl of PBS-0.02% Tween20. Plates surfaces were blocked with 25 μl of PBS-0.02% Tween20-1% BSA at 37° C. during 1 h. Plates were then washed four times with 100 μl of PBS-0.02% Tween20. Then twenty-five microliters of either recombinant Human Fc gamma RI/CD64 Protein (R&D systems, 1257-FC-050, CF), recombinant Human Fc gamma RIIA/CD32a (H167) Protein (R&D systems, 9595-CD-050, CF), recombinant Human Fc gamma RIIB/CD32b Avi-tag Protein (R&D systems, AVI1875-050, CF), or recombinant Human Fc gamma RIIIA/CD16a Protein (R&D systems, 4325-FC-050; CF) were added in five-fold serial dilutions ranging from 1000 nM to 0.001 nM into PBS-0.02% Tween20-0.1% BSA and incubated at 37° C. during 2 h. Plates were then washed four times with 100 μl of PBS-0.02% Tween20. Twenty-five microliters of a 1/500 HRP-anti-His antibody in PBS—0.02% Tween20-0.1% BSA (R&D systems, anti-HIS—HRP Ab, #MAB050H) were added to each well and plates were incubated at Room Temperature during 1 h. Plates were then washed four times with 100 μl of PBS-0.02% Tween20. Fifty microliters of TMB substrate reagent (#CL07, Merck, Buchs, Switzerland) were added to each well and incubated at 37° C. during 5 min. After 5 min at 37° C., Horseradish peroxidase reaction was stopped by adding 50 μl/well of 0.5M H2SO4 stop solution. ELISA signal was then measured at 450 nm on an EnSpire plate reader from Perkin Elmer (Schwerzenbach, Switzerland).

[2] = target: T1, human Fc gamma receptor IIa (FcγRIIa/CD32a) (Homo sapiens, UniProt P12318); experiment: Human FcγR binding ELISA, FcγRIIa (Example 8); details: antibody coated on plate, soluble receptor titrated, read-out: FcγRIIa (CD32a) binding affinity
T1 sequence (P12318 36-218): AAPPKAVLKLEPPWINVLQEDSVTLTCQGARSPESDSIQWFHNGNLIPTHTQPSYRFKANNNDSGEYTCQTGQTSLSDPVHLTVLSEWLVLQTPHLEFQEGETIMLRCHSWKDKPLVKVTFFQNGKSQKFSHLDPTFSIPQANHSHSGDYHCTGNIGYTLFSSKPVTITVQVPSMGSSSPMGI
Method: as §1, §2

[3] = target: T2, human Fc gamma receptor IIb (FcγRIIb/CD32b) (Homo sapiens, UniProt P31994); experiment: Human FcγR binding ELISA, FcγRIIb (Example 8); details: antibody coated on plate, soluble receptor titrated, read-out: FcγRIIb (CD32b) binding affinity
T2 sequence (P31994 43-310): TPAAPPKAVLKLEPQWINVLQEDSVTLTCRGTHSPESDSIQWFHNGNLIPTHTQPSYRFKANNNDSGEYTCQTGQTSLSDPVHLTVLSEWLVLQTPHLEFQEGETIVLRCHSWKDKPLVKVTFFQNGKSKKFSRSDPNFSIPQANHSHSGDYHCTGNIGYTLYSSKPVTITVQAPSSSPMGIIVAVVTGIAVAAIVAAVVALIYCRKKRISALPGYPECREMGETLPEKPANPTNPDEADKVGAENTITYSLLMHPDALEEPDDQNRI
Method: as §1, §2

[4] = target: human Fc gamma receptor III FcγRIIIa/CD16; experiment: Human FcγR binding ELISA, FcγRIIIa (Example 8); details: antibody coated on plate, soluble receptor titrated, read-out: FcγRIIIa (CD16) binding affinity
Sequence of human Fc gamma receptor III FcγRIIIa/CD16 (P08637 17-254): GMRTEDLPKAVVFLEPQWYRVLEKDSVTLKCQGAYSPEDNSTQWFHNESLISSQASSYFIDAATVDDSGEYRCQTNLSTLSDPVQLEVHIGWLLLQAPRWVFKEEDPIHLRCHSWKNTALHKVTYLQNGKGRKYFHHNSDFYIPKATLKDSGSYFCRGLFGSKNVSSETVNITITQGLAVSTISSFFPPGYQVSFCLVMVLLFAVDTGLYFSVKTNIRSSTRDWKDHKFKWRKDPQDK
Method: as §1, §2

[5] = target: human neonatal Fc receptor (FcRn) (Homo sapiens, UniProt P55899); experiment: Human FcRn binding AlphaLISA at pH 6 (Example 9); details: AlphaLISA competition
Method: The interaction of the unmodified and of conjugated anti-PD1 antibodies with the human neonatal Fc receptor (FcRn) at pH 6 was measured using the AlphaLISA® Human FcRn Binding Kit (AL3095C) from Perkin Elmer (Schwerzenbach, Switzerland). […] When reference IgG binds to FcRn, donor and acceptor beads come into proximity enabling the transfer of singlet oxygen that trigger a cascade of energy transfer reactions in the acceptor beads, resulting in a sharp peak of light emission at 615 nm. Addition of a free IgG antibodies into the AlphaLISA® mixture creates a competition for the binding of FcRn to the reference antibody resulting in a loss of signal.
After 90 min at 23° C. in the dark, AlphaLISA® signal was measured on an EnSpire plate reader (Excitation at 680 nm, Emission at 615 nm) from Perkin Elmer (Schwerzenbach, Switzerland).

PD-1/PD-L1 blockade potency (PD-1/PD-L1 interaction) [nM] | Kd [1] [nM] | Kd [2] [nM] | Kd [3] [nM] | Kd [4] [nM] | Kd [5] [nM] | Substance
0.664 | 9.17 | 1370 | > 10000 | 356 | 6.4 | Atezolizumab/Tecentriq: anti-PD-L1 antibody, unconjugated reference antibody [reference compound]
– | 10.8 | 1740 | > 10000 | 492 | – | Composition B: immunocytokine: Atezolizumab/Tecentriq (anti-PD-L1) conjugated to IL-18 polypeptide SEQ ID NO: 30
5.8 | 0.315 | 1350 | 2630 | 1710 | 6 | LZM-009: anti-PD-1 antibody (VH SEQ ID NO: 376, VL SEQ ID NO: 377), unconjugated reference antibody [reference compound]
